Measurements: paper PMC2755582 (Journal of molecular biology, 2009)
Blank lines part the entries; values can stand above or below the molecule they belong to.

Columns and labels:
[1] = target: Uroplakin Ia (Mus musculus) (UniProt Q9D132); details: cited from earlier work
uroplakin Ia = target: T1, uroplakin Ia (mouse, UniProt Q9D132 1-257, high mannose glycan at its single glycosylation site); experiment: cryo-EM structure
T1 sequence (looked up): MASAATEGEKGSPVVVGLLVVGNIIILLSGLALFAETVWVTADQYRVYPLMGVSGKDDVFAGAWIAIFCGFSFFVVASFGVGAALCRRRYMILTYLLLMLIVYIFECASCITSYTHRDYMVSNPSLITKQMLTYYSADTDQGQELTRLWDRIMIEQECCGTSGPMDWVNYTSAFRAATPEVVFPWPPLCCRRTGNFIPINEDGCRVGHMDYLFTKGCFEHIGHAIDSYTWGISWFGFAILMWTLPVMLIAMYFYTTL

uroplakin IIIa = target: T2, uroplakin IIIa (mouse, UniProt Q9JKX8 19-287); experiment: cryo-EM structure
T2 sequence (looked up): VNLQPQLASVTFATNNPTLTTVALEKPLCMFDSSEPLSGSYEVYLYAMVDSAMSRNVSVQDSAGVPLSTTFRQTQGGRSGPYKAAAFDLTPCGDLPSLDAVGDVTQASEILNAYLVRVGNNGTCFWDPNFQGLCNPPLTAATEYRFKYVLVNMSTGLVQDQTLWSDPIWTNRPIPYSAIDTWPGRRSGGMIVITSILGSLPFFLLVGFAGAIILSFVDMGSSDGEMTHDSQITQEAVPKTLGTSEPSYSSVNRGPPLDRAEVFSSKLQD

Molecule: FimH (from UniProt P08191)
Kd [1]: 100 nM

binding result (uroplakin Ia): binds
B1: uroplakin II (natural protein, mouse, UniProt P38575 85-184, looked up)
chain: ELVSVVDSGSGYTVTRLSAYQVTNLTPGTKYYISYRVQKGTSTESSPETPMSTLPRKNMESIGLGMARTGGMVVITVLLSVAMFLLVVGLIVALHWDARK

binding result (uroplakin IIIa): binds
B2: uroplakin Ib (natural protein, mouse, UniProt Q9Z2C6 1-260, looked up)
chain: MAKDDSTVRCFQGLLIFGHVIVGMCGIALTAECIFFVSDQHSLYPLLEATNNDDIFGAAWIGMFVGICLFCLSVLAIVGIMKSNRKILLAYFIMMFIVYGFEVASCITAATQRDFFTTNLFLKQMLMRYQNNSPPTNDDEWKNNGVTKTWDRLMLQDHCCGVNGPSDWQKYTSAFRVENNDADYPWPRQCCVMDKLKEPLNLDACKLGVPGYYHSQGCYELISGPMDRHAWGVAWFGFAILCWTFWVLLGTMFYWSRIEY
